Experimental data published in the nanobody polyreactivity screen of Harvey et al. (2022).

Assay: yeast display, Sf9 membrane polyspecificity reagent, FACS + sequencing; frameworks hold sequencing errors
Procedure, shortened: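 Nanobodies came from a synthetic yeast display library in Saccharomyces cerevisiae BJ5465, induced with galactose for 36–48 hours and stained for 1 hour at 4 °C with 10% biotinylated, detergent-solubilized Sf9 membrane reagent. Cells were enriched on streptavidin microbeads and then FACS-sorted, with low and high (top ~1%) gates set on anti-HA fluorescence for expression and streptavidin fluorescence for reagent binding. Each polyreactivity label reflects the gate a clone came from. Genes were amplified by colony PCR, sequenced by MiSeq 2 × 250 and filtered by CDR length.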

Sequence | polyreactivity (PSR sort gate)
QVQHVESGGGLVQAGGSLRLSCAASGITFGRNTMGWYRQAPGKERELVAAIDSGGNTYADSVKGRFTISRDNAKITVYLQMIRQKPEDTAVDSCAVDGGEFSSYGYWGQGTQVTVSS | low polyreactivity
QVQLQESGGGLVQSGGSLRLSCAASGYISSWYPMGWYRHAPGKEREFVATIAPGATTYYADSVKGRFTISRDYAKNTVYLQMNSLKPEDTAVYYCAAGPENNDFYSYWGQGTQVTVSS | low polyreactivity
QVQLVESGGALVQAGGSLRLSCAASGSIFYNAMGWYRQAPGKERELVAAISWRGTRTYYADSVKGRFTISRDNAKNTVYLQMNSLKPEDTAVYYCNKDYKYGVAYTRYDYWGQGTQVTVSS | high polyreactivity
QVQLVESGGGLVQAGGSLRLSCAASGFTLYPYAKGWYRQAPGKARELVAAISWSVGSTRYADSVKGRFTISRDNAKNTVYLQMNSLKPEDTAVYYCAARPHGRFSQLRVDWGQGTQVTVSS | low polyreactivity
QVQLVESGGGLGQAGGSLRLSCAASGSIIKPYAMGWYRQAPGKERELVAAIRSSGGRTNYADSVKGRFTISRDNAKNSVYFQMNSLKPEDTGVYYCAAGYVSYWYYRYDYWGQGTQVTVSS | high polyreactivity
QVQLVESGGGFVQAGGSLRLTCAASGRTFAKNTMGWYRQAPGKERELVAAITWRGGTTYYADSVKGRVTISRDNAKNTVYLQMNSLKPEDTAVYYCAKDRYYGYFRSRSDYWGQGTQVTVSS | high polyreactivity
QVQLVESGGGLVQAGGSLRLSCAASGFIFVSYAMGWDRQAPGKERELVATITWGGGSTYYADSVKGRFTISRDNAKNTVYLQMNSLKPVDTAVYYCAADYPYSPIFDRYVEYEYWGQGTQVTVSS | low polyreactivity
QVQLVESGGGLVQAGGSLRLSCAASGLTFSRYARGWYRQAPGKERELVAAISGSGGSTYYADSVKGRFTISRDNAKNTVYLQMNSLKPEDTAVYYCNKYRATNSARDYWGQGTQVTVSS | high polyreactivity
QVQLVESGGGLVQAGGSLRLSCAASGITFYGYAMGWYRHAPGKERELVATISSGGGTNYADSVKGRFTISRDNAKNTVYLQMNSLKPEDSAVYYCATDLSTVDYNYWGQGTQVTVSS | low polyreactivity
QVQLVESGGGLVQAGGSLRLSCAASGSILSPYAMGWYRQAPGKERELVAAISRSGDRTYYADSVKGRFTISRDNAKNTVYLQMNSLKPEDTAVYYCAAEYSWPWDYYYWGQGTQVTVSS | high polyreactivity
QVQLVESGGGLVQAGGSLRLSCASSGYIITRKAMGWYRQAPGKERELVATISSRGGRTYYADSVKGRFTISRDNAKNTVYLQMNSLKPEDTAVYYCAATPWYRTRTYDYWGQGTQVTVSS | high polyreactivity
QDQLVESGGGLVQAGGSLRLSCAASGRIFPGNAMGWYIHEPGKERELVADITSGGSTNYADSVNGRFTISRDNAKNSVYLQMNSLKPEDTAVYYCAVGQIYQTSDHRLQYVYWGQGTQVTVSS | low polyreactivity
QVQLVESGGGLDQAGGSLRLTCAASGRIISGNAMGWYRQAPGKERELVAAISWSGGSTYYADSVKWRFTISRDNEKNTVYLHMNSLQPEDSAVYYCNAPGYRRYGSRMGYCGQGTQVTVSS | high polyreactivity
QVQLVESGGGLVQAGGSLRLSCAASGRIFYTNAMGWYRQAPGKERELVAGIRFNGGSTYYADSVKGRFTISRDNAKNTVYLQMNSLKPEDTAVYYCAVRTYYSGYDSWGQGTQVTVSS | low polyreactivity
QVKLVESGGGLDQAGGSLRLSCSASRSTFWHYAMGWYRQAPGKERELVASISGRGTSTYYADSVKGRFTISRDNAKNTVFFQMNSLKPEDTAVYYCAATKWFGAFDYWGQGTQVTVSS | low polyreactivity
QVQLVESGGGLVQAGGSLRLSCAASGRIFRVNTMGWYRQAPGKERELVAAISTSGGTTYYADSVKGRFTISRDNAKNTVYIQLNSLKPEDTAVYYCNASYLTRRDGYIEDAIYDYWGQGTQVTVSS | low polyreactivity
QVQLVESGGGLVQAGGSLRLSCAASGITLVSYARGWYRQAPGKERELVAAISWSGGRTFYADSVKGRFTISRDNAKNTVYLQMNRLKPEDTAVYYCNTAQYPYFYSHVSYPHDYWGQGTQVTVSS | high polyreactivity
QVQLVESGGGLVQAGGSLRLSCAASGSTIYFNGMGWYRQAPGKERELVAAITSGGSTDYADSVKGRFTISRDNAKNTVDLQMNSLKPEDTAVYYCAADGEDSLWTGYDYDYWGQGTQVTVSS | low polyreactivity
QVQLVESGGGLVQAGGSLRLSCAPSGSTFYSYVMGWYRQATGKERELVAVISNDGSTNYADSVKGRFTISRDNAKNTVYLQMNSLKPEDTAVYYCAALKFVRAYRYYYWGQGTQVTVSS | low polyreactivity
QVQLVESGGGLVQAGGSLRLSCAASGRIFRYYAMGWYRQAPGKERELVAAIRSGGSTNYADSVKGRFTISRDNATNTVYLQLNSLKPEDTAVYYCNARYRYFKGGYWGQGTQVTVAS | high polyreactivity
QVQLVESGGGLVQAGGSLGLSCAASGSTFGPNAMGWYRQAPGKERELVARITDSGGSTYYADSVKGRFTISRDNAKNTVDLQMNSLKQDDTAVYYCAAEVYLLSRYYTPAYDYWGQGTLVTVSS | low polyreactivity
QVQLVESGGGLVQAGGSLRLSCAASGGTLQGNAMGWYRQAPGKERELVAAISSRGGRTYYADSVKGRFTISRDNAKNTVYLQMNSLKPEDTAVYYCAAVQNGDSTLLRTKGGYWGQGTQVTVSS | high polyreactivity

Sequence | polyreactivity (PSR sort gate)
QVQLVESGGGLVQSGGSLRLTCAASGFIFHKYVMGWYSPAPGKEREMVAAISRSGASTYYADSVKGRFTISRDNAKNTVYLQMNSLKPEDTAVYYCAKDYQTYSGSSDFDYWGQGSQVTVSS | high polyreactivity
QVQLVESGGGLVQAGGSLRLSCAASGSIFLRNAMGWYRQAPGKERELVASITWNGASTSYADSVKGRFTISRDNAKNTVYLQMNSLKPEDTAVYYCAAVTVQDSNLKYGYWGQGTQLTVSS | low polyreactivity
QVQLVESGGGLVQAGGSLRLSCAASGSIFGEYTMGWYRPAPGKERELVAAIRSGGDTYYADSVKGRFTISRDNAKNTVYLQMNSLKPEDTAVYYCNAYWVRHYIMDYWGQGTQVTVSS | low polyreactivity
QLQLVESGGGLVQAGGSLRLSCAASGRIFTYNALGWYRQAPGKERELVARIRRSGGTYYADSVKGRFTISRDNAKNTVYLQMNSLKPEDTAVYYCAVDLYIYYREYDYWGQGTQVTVSS | high polyreactivity
QVQLEETRGGLVQAGGSLRLSCAASGSIFPYYALGWYRQAAGKERELVASINQTDGTTYYADSVKGRFTISRDNAKNNVYLQMNSLKPDDTAFYYCPADTTLQAFIPYRPIGSYDSWGQGTQVTVSS | low polyreactivity
QVKLVESGGRLVQAGGILRLSSPASGFIFRGYARGWYRQAPGKERELVAAINSGGSTNYADSVKGRFTISRDNAKNTVYLQMIRLKPEETAVYYCAARVKTSYRYLRTYNYWGLGTQVTVSS | high polyreactivity
QVQLVESGGGLVQAGGSLRLSCAASGSIRSYAMGWYRQAPGKERELVAAITRSGGSTYYADSVKGRFTISRDNAKITVYLQMNSLKPEDTAFYYCAARYTYSYPLFGSWGQGTQVTVSS | high polyreactivity
QVQLVESGGGLVQAGGSLRLSCAASGFTFERNTMGWYRPAPGKERELVATITRRGTSTYYADSVKGRFTISRDNAKNTVYLQMNSLKPEDTAVYYCARGQYSHRSQAGMDYWGQGTQVTVSS | high polyreactivity
QVQLVESGGGLVQAGGSLRLSCAASGYTFRYYVMGWYRQAPGKERELVAAISFSGGSTYYADSVKGRFTISRDTAKNSGYLQMKSLKPEDTAVYYCAARPGGGKYRGYYYWGQGTQVTVSS | high polyreactivity
QVQLVESGGGLVQAGGSLRLSCAASGRIFKWYAMGWSRQAPGKEWEFVAGISGSAGRTYYADSVKGRCTISRDNAKNTVYLQMNSLKPEDTAVYYCAAVYYSSLYDYWGQGTQVTVSS | low polyreactivity
QVQLVESGGGLVQEGGSLRLSCACSARTITGYAIGWYRQAPGQEWEVVAAIYRRGASTYYADSVKGRFTISRDNAKNTVYLEMNSLKPEDTAVDYCAAYLYGLWSVGRDYWGQGTQVTVSS | high polyreactivity
QVQLEDSGGGLVQAGGSLGLSCAASGITFSVYDMGWYRQAPGKERQLVAAISWSGGSTYYADSVKGRFTISRDNAKNTVFLQMNSLKPDDTAVYYCAAEVDYWYELYDYWGLGTQVTVSS | high polyreactivity
QFQLEESRGGLVQAGGSLRLSCAASGRIFDLYAMGWYRQAPGKETELVATISGSGGSTYYADSVKGRFTISRDNAKNTVYLQMNSLKPEDTAVYYCAAVSVSSWYDYWGQGTQVTVSS | low polyreactivity
QVQLVESGGGLVQAGGSLRLSCAASGRIFKYNAMGWYRQAPGKERELVAAISSSGGSTYYADSVKGRCTISRDNAKNTVYLQMNSLKPEDTAVYYCAARYNSRVYRYDYWGQGTQVTVSS | high polyreactivity
QVQLVESGGGLVQAGGSLRFSCAASGFTFYEYAMGWYRQAPGKERELVAAINWNGGRTYYADSVKGRFTISRDNAKNTVYLQMNSLKPEDTAVYYCAARVAPKTKISRRYYWGQGTQVNVSS | high polyreactivity
QVQLVESGGGLVQAGGSLRLSCAASGSIFYLYAMGWYRQAPGKERELVATITRGGSTNYADSVKGRFRISRDNAKNTDYVQMNSLKPEDTARYYCNARFFKPPYSKWSSRFDYWGQGTQVTVSS | high polyreactivity
QVQLVESGGGLVQAGGSLRLSCAASGYTFRFNAMGWYRQAPGKEREFVAAIDFGGAGTYYADSVKGRFTISRDNAKNTVYLQMNSLKPEDTAVYYCNARDGVTTEFDYWGQGTQVTVSS | low polyreactivity
QVQLVESGGGLVQAGGSLRLSCAASGSTFGLNALGWYRQAPGKERELVAAISTSGGSTYYADSVKGRFTISRDNAKNTVFLQMNSLNPEDTAVYYCAADVVAGYDYSQYYYWGQGTQVTVSS | low polyreactivity
QVQLVESVVGLVQAVGTLRLSSAATGSTIYRNAMGWYRQPPGKEREFVAAISFRGGGTYADSVKGRFTISRDNAKNTVYLQMNSLKPEDTAVYYCAADHLSYRRRYEYWGQGTQVTVSS | low polyreactivity
QVQLVESGGGLVQAGGSLRLSCAASGTTFPIYAMGWYRQAPGKERELVADITSTGSTDYADSVKGRFTISRDNAKNTVYLQMNSLKPEDTAVYYCAAAWKAYRRYGYWGQGTQVTVSS | high polyreactivity
QVQLVESGGGLVQAGGSLRLSCAASGFTFDDYAMGWYRQAPGKERELVAAISWSGGSTYYADSVKGRFTISRDNAKNTVYLQMNSLKPEDTAVYYCAALRTGAQYSTMDYWGQGTQVTVSS | low polyreactivity
